Test results as given in patent US20180155451A1 (published 2018).

B1: GpH7-A5/GpH7-B3 variant L234_10E/GpL16-k0 (antibody, human IgG1, kappa)
heavy 1: not shown
heavy 2: not shown
light: DIVMTQSPLSLPVTPGEPASISCQASESLVHSNRNTYLHWYLQKPGQSPQLLIYKVSNRFSGVPDRFSGSGSGTDFTLKISRVEAEDVGVYYCSQNTHVPPTFGQGTKVEIERTVAAPSVFIFPPSDEQLKSGTASVVCLLNNFYPREAKVQWKVDNALQSGNSQESVTEQDSKDSTYSLSSTLTLSKADYEKHKVYACEVTHQGLSSPVTKSFNRGEC
notes: also called He Ab L234_10E
B2: GpH7-A5/GpH7-B3 variant S239_10E/GpL16-k0 (antibody, human IgG1, kappa)
heavy 1: not shown
heavy 2: not shown
light: B1 light
notes: also called He Ab S239_10E
B3: GpH7-A5/GpH7-B3 variant L235_09D/GpL16-k0 (antibody, human IgG1, kappa)
heavy 1: not shown
heavy 2: not shown
light: B1 light
notes: also called He Ab L235_09D
B4: GpH7-A5/GpH7-B3 variant S239_03V/GpL16-k0 (antibody, human IgG1, kappa)
heavy 1: not shown
heavy 2: not shown
light: B1 light
notes: also called He Ab S239_03V
B5: GpH7-A5/GpH7-B3 variant P238_09D/GpL16-k0 (antibody, human IgG1, kappa)
heavy 1: not shown
heavy 2: not shown
light: B1 light
notes: also called He Ab P238_09D
B6: GpH7-A5/GpH7-B3 variant P331_06M/GpL16-k0 (antibody, human IgG1, kappa)
heavy 1: not shown
heavy 2: not shown
light: B1 light
notes: also called He Ab P331_06M
B7: GpH7-A5/GpH7-B3 variant S239_05P/GpL16-k0 (antibody, human IgG1, kappa)
heavy 1: not shown
heavy 2: not shown
light: B1 light
notes: also called He Ab S239_05P
B8: GpH7-A5/GpH7-B3 variant S337_16H/GpL16-k0 (antibody, human IgG1, kappa)
heavy 1: not shown
heavy 2: not shown
light: B1 light
notes: also called He Ab S337_16H
B9: GpH7-A5/GpH7-B3 variant P238_10E/GpL16-k0 (antibody, human IgG1, kappa)
heavy 1: not shown
heavy 2: not shown
light: B1 light
notes: also called He Ab P238_10E
B10: GpH7-A5/GpH7-B3 variant P238_16H/GpL16-k0 (antibody, human IgG1, kappa)
heavy 1: not shown
heavy 2: not shown
light: B1 light
notes: also called He Ab P238_16H
B11: GpH7-A5/GpH7-B3 variant P331_10E/GpL16-k0 (antibody, human IgG1, kappa)
heavy 1: not shown
heavy 2: not shown
light: B1 light
notes: also called He Ab P331_10E
B12: GpH7-A5/GpH7-B3 variant P331_20W/GpL16-k0 (antibody, human IgG1, kappa)
heavy 1: not shown
heavy 2: not shown
light: B1 light
notes: also called He Ab P331_20W
B13: GpH7-A5/GpH7-B3 variant N325_03V/GpL16-k0 (antibody, human IgG1, kappa)
heavy 1: not shown
heavy 2: not shown
light: B1 light
notes: also called He Ab N325_03V
B14: GpH7-A5/GpH7-B3 variant S337_07I/GpL16-k0 (antibody, human IgG1, kappa)
heavy 1: not shown
heavy 2: not shown
light: B1 light
notes: also called He Ab S337_07I
B15: GpH7-A5/GpH7-B3 variant L235_15Y/GpL16-k0 (antibody, human IgG1, kappa)
heavy 1: not shown
heavy 2: not shown
light: B1 light
notes: also called He Ab L235_15Y
B16: GpH7-A5/GpH7-B3 variant N325_13S/GpL16-k0 (antibody, human IgG1, kappa)
heavy 1: not shown
heavy 2: not shown
light: B1 light
notes: also called He Ab N325_13S
B17: GpH7-A5/GpH7-B3 variant S267_06M/GpL16-k0 (antibody, human IgG1, kappa)
heavy 1: not shown
heavy 2: not shown
light: B1 light
notes: also called He Ab S267_06M
B18: GpH7-A5/GpH7-B3 variant S298_06M/GpL16-k0 (antibody, human IgG1, kappa)
heavy 1: not shown
heavy 2: not shown
light: B1 light
notes: also called He Ab S298_06M
B19: GpH7-A5/GpH7-B3 variant P238_20W/GpL16-k0 (antibody, human IgG1, kappa)
heavy 1: not shown
heavy 2: not shown
light: B1 light
notes: also called He Ab P238_20W
B20: GpH7-A5/GpH7-B3 variant N325_09D/GpL16-k0 (antibody, human IgG1, kappa)
heavy 1: not shown
heavy 2: not shown
light: B1 light
notes: also called He Ab N325_09D
B21: GpH7-A5/GpH7-B3 variant P331_07I/GpL16-k0 (antibody, human IgG1, kappa)
heavy 1: not shown
heavy 2: not shown
light: B1 light
notes: also called He Ab P331_07I
B22: GpH7-A5/GpH7-B3 variant S324_06M/GpL16-k0 (antibody, human IgG1, kappa)
heavy 1: not shown
heavy 2: not shown
light: B1 light
notes: also called He Ab S324_06M
B23: GpH7-A5/GpH7-B3 variant N325_07I/GpL16-k0 (antibody, human IgG1, kappa)
heavy 1: not shown
heavy 2: not shown
light: B1 light
notes: also called He Ab N325_07I
B24: GpH7-A5/GpH7-B3 variant P271_09D/GpL16-k0 (antibody, human IgG1, kappa)
heavy 1: not shown
heavy 2: not shown
light: B1 light
notes: also called He Ab P271_09D
B25: GpH7-A5/GpH7-B3 variant N325_01G/GpL16-k0 (antibody, human IgG1, kappa)
heavy 1: not shown
heavy 2: not shown
light: B1 light
notes: also called He Ab N325_01G
B26: GpH7-A5/GpH7-B3 variant S267_19Q/GpL16-k0 (antibody, human IgG1, kappa)
heavy 1: not shown
heavy 2: not shown
light: B1 light
notes: also called He Ab S267_19Q
B27: GpH7-A5/GpH7-B3 variant P271_10E/GpL16-k0 (antibody, human IgG1, kappa)
heavy 1: not shown
heavy 2: not shown
light: B1 light
notes: also called He Ab P271_10E
B28: GpH7-A5/GpH7-B3 variant N325_20W/GpL16-k0 (antibody, human IgG1, kappa)
heavy 1: not shown
heavy 2: not shown
light: B1 light
notes: also called He Ab N325_20W
B29: GpH7-A5/GpH7-B3 variant L328_13S/GpL16-k0 (antibody, human IgG1, kappa)
heavy 1: not shown
heavy 2: not shown
light: B1 light
notes: also called He Ab L328_13S
B30: GpH7-A5/GpH7-B3 variant N325_06M/GpL16-k0 (antibody, human IgG1, kappa)
heavy 1: not shown
heavy 2: not shown
light: B1 light
notes: also called He Ab N325_06M
B31: GpH7-A5/GpH7-B3 variant L328_09D/GpL16-k0 (antibody, human IgG1, kappa)
heavy 1: not shown
heavy 2: not shown
light: B1 light
notes: also called He Ab L328_09D
B32: GpH7-A5/GpH7-B3 variant P238_19Q/GpL16-k0 (antibody, human IgG1, kappa)
heavy 1: not shown
heavy 2: not shown
light: B1 light
notes: also called He Ab P238_19Q
B33: GpH7-A5/GpH7-B3 variant S337_15Y/GpL16-k0 (antibody, human IgG1, kappa)
heavy 1: not shown
heavy 2: not shown
light: B1 light
notes: also called He Ab S337_15Y
B34: GpH7-A5/GpH7-B3 variant S239_06M/GpL16-k0 (antibody, human IgG1, kappa)
heavy 1: not shown
heavy 2: not shown
light: B1 light
notes: also called He Ab S239_06M
B35: GpH7-A5/GpH7-B3 variant N325_08L/GpL16-k0 (antibody, human IgG1, kappa)
heavy 1: not shown
heavy 2: not shown
light: B1 light
notes: also called He Ab N325_08L
B36: GpH7-A5/GpH7-B3 variant L235_04F/GpL16-k0 (antibody, human IgG1, kappa)
heavy 1: not shown
heavy 2: not shown
light: B1 light
notes: also called He Ab L235_04F
B37: GpH7-A5/GpH7-B3 variant P331_15Y/GpL16-k0 (antibody, human IgG1, kappa)
heavy 1: not shown
heavy 2: not shown
light: B1 light
notes: also called He Ab P331_15Y
B38: GpH7-A5/GpH7-B3 variant L328_10E/GpL16-k0 (antibody, human IgG1, kappa)
heavy 1: not shown
heavy 2: not shown
light: B1 light
notes: also called He Ab L328_10E
B39: GpH7-A5/GpH7-B3 variant S337_08L/GpL16-k0 (antibody, human IgG1, kappa)
heavy 1: not shown
heavy 2: not shown
light: B1 light
notes: also called He Ab S337_08L
B40: GpH7-A5/GpH7-B3 variant S337_18N/GpL16-k0 (antibody, human IgG1, kappa)
heavy 1: not shown
heavy 2: not shown
light: B1 light
notes: also called He Ab S337_18N
B41: GpH7-A5/GpH7-B3 variant N325_04F/GpL16-k0 (antibody, human IgG1, kappa)
heavy 1: not shown
heavy 2: not shown
light: B1 light
notes: also called He Ab N325_04F
B42: GpH7-A5/GpH7-B3 variant P238_15Y/GpL16-k0 (antibody, human IgG1, kappa)
heavy 1: not shown
heavy 2: not shown
light: B1 light
notes: also called He Ab P238_15Y
B43: GpH7-A5/GpH7-B3 variant P238_03V/GpL16-k0 (antibody, human IgG1, kappa)
heavy 1: not shown
heavy 2: not shown
light: B1 light
notes: also called He Ab P238_03V
B44: GpH7-A5/GpH7-B3 variant P238_04F/GpL16-k0 (antibody, human IgG1, kappa)
heavy 1: not shown
heavy 2: not shown
light: B1 light
notes: also called He Ab P238_04F
B45: GpH7-A5/GpH7-B3 variant L328_02A/GpL16-k0 (antibody, human IgG1, kappa)
heavy 1: not shown
heavy 2: not shown
light: B1 light
notes: also called He Ab L328_02A
B46: GpH7-A5/GpH7-B3 variant P331_16H/GpL16-k0 (antibody, human IgG1, kappa)
heavy 1: not shown
heavy 2: not shown
light: B1 light
notes: also called He Ab P331_16H
B47: GpH7-A5/GpH7-B3 variant L235_20W/GpL16-k0 (antibody, human IgG1, kappa)
heavy 1: not shown
heavy 2: not shown
light: B1 light
notes: also called He Ab L235_20W
B48: GpH7-A5/GpH7-B3 variant L234_20W/GpL16-k0 (antibody, human IgG1, kappa)
heavy 1: not shown
heavy 2: not shown
light: B1 light
notes: also called He Ab L234_20W
B49: GpH7-A5/GpH7-B3 variant P331_03V/GpL16-k0 (antibody, human IgG1, kappa)
heavy 1: not shown
heavy 2: not shown
light: B1 light
notes: also called He Ab P331_03V
B50: GpH7-A5/GpH7-B3 variant P238_06M/GpL16-k0 (antibody, human IgG1, kappa)
heavy 1: not shown
heavy 2: not shown
light: B1 light
notes: also called He Ab P238_06M
B51: GpH7-A5/GpH7-B3 variant S267_01G/GpL16-k0 (antibody, human IgG1, kappa)
heavy 1: not shown
heavy 2: not shown
light: B1 light
notes: also called He Ab S267_01G

Biological target: T1, FcγRIIb (human, UniProt P31994 43-217)
T1 construct: extracellular domain; also called 2b; FcgRIIb
T1 sequence (looked up): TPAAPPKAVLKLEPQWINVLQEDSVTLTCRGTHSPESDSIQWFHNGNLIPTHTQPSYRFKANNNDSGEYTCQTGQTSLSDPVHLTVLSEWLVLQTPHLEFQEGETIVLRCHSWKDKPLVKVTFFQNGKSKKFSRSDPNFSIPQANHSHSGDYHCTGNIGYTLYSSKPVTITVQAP
Assay: SPR (Biacore), binding relative to GpH7-A5/GpH7-B3/GpL16-k0 = 100
Procedure: Analysis of interaction between objective antibody and the FcγR was carried out using Biacore T100 (GE Healthcare). HBS-EP+ (GE Healthcare) was used as the running buffer, and the measurement temperature was set to 25° C. Chips produced by immobilizing the antigen peptide by the amine coupling method to a Series S Sencor Chip CM5 (GE Healthcare), or alternatively, chips produced by allowing preliminarily biotinylated antigen peptides to interact with and immobilize onto a Series S Sensor Chip SA (certified) (GE Healthcare) were used. Antibodies of interest were captured onto an antigen peptide-immobilized chip, and allowed to interact to each FcγR diluted with running buffer. To regenerate and repeatedly use the chip, the antibodies captured on the chip were washed off by reacting 10 mM glycine-HCl, pH 1.5.
The FcγR-binding activity of each antibody was assessed primarily using as an indicator the FcγR-binding activity and dissociation constant for FcγR.

Row | Binder | He/Con_2b
1 | B1 | 118 % of control
2 | B2 | 181 % of control
3 | B3 | 106 % of control
4 | B4 | 108 % of control
5 | B5 | 221 % of control
6 | B6 | 102 % of control
7 | B7 | 102 % of control
8 | B8 | 105 % of control
9 | B9 | 232 % of control
10 | B10 | 115 % of control
11 | B11 | 116 % of control
12 | B12 | 111 % of control
13 | B13 | 111 % of control
14 | B14 | 104 % of control
15 | B15 | 149 % of control
16 | B16 | 177 % of control
17 | B17 | 210 % of control
18 | B18 | 102 % of control
19 | B19 | 123 % of control
20 | B20 | 124 % of control
21 | B21 | 114 % of control
22 | B22 | 112 % of control
23 | B23 | 171 % of control
24 | B24 | 120 % of control
25 | B25 | 101 % of control
26 | B26 | 218 % of control

Row | Binder | He/Con_2b
27 | B27 | 109 % of control
28 | B28 | 169 % of control
29 | B29 | 149 % of control
30 | B30 | 217 % of control
31 | B31 | 199 % of control
32 | B32 | 110 % of control
33 | B33 | 100 % of control
34 | B34 | 101 % of control
35 | B35 | 197 % of control
36 | B36 | 118 % of control
37 | B37 | 114 % of control
38 | B38 | 172 % of control
39 | B39 | 100 % of control
40 | B40 | 103 % of control
41 | B41 | 143 % of control
42 | B42 | 218 % of control
43 | B43 | 120 % of control
44 | B44 | 312 % of control
45 | B45 | 144 % of control
46 | B46 | 116 % of control
47 | B47 | 147 % of control
48 | B48 | 114 % of control
49 | B49 | 119 % of control
50 | B50 | 174 % of control
51 | B51 | 105 % of control
